The data set deals with Lys69 (UniProt position 69, KALAVKVFKMT). Briefly: UV-vis. The conditions noted are these: not stated (100 mM buffers); 100 mM sodium phosphate/citrate (pH 4-6), sodium phosphate (pH 6.2-8.6), sodium carbonate (pH > 8.6); ferrous-deoxy, no exogenous ligand.

Data on 1 substance can be found in article PMC4881466.

By pKa is commonly meant the pH at which an ionisable group is half protonated.

“Non-symbiotic hemoglobin 2 (AHb2) H66L mutant (Arabidopsis thaliana; H66L)” returned a pKa of 10 ± 0.2.
